Data reported in US20220098306A1 (published 2022).
Read-outs that look alike come from different tables or passages of the source.

How the values were obtained:
[1] = target: T1, CD28 (antigen of the affinity determinations) (human, UniProt P10747 19-152); test: -; scFv VHVL, 1+1 Fab-scFv-Fc
CD28-Fc-His protein [2] = target: T2, CD28-Fc-His protein (human, UniProt P10747 19-152); test: Octet; Steady State
CD28-Fc-His protein [3] = target: T2, CD28-Fc-His protein; test: Octet; 1:1 Langmuir
[4] = target: T3, B7H3 (antigen of the affinity statements) (human, UniProt Q5ZPR3 29-466); test: -; monovalent KD
T3 chain: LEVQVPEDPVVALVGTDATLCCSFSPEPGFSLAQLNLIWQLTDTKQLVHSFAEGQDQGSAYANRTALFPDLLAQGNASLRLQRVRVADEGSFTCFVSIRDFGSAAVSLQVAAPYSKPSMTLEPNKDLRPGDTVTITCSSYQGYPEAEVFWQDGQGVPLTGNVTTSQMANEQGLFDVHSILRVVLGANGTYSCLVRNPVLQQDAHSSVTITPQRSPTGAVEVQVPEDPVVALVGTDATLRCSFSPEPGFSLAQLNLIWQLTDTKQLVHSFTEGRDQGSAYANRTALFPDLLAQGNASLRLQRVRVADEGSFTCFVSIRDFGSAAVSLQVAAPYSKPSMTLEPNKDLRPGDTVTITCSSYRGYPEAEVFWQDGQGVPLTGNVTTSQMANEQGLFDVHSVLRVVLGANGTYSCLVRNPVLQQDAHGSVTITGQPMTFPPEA

[5] = target: T1, CD28 (antigen of the affinity …)
[6] = target: T1, CD28 (antigen of the affinity …); test: -; Fab, 2+1 CLC

Kd [1] [nM] | Kd (CD28-Fc-His protein [2]) [nM] | Kd (CD28-Fc-His protein [3]) [nM] | Kd [6] [nM] | Binder | further results
 |  |  | 232 | XENP37808 (bispecific antibody) heavy 1: EVQLLESGGGLVQPGGSLRLSCAASGFTFSSYYMSWVRQAPGKGLEWVSTISGSGDSTYYADSVKGRFTISRDNSKNTLYLQMNSLRAEDTAVYYCAKSGPGLRQVGFDYWGQGTLVTVSSASTKGPSVFPLAPSSKSTSGGTAALGCLVKDYFPEPVTVSWNSGALTSGVHTFPAVLQSSGLYSLSSVVTVPSSSLGTQTYICNVNHKPSDTKVDKKVEPKSCDKTHTCPPCPAPPVAGPSVFLFPPKPKDTLMISRTPEVTCVVVDVKHEDPEVKFNWYVDGVEVHNAKTKPREEEYNSTYRVVSVLTVLHQDWLNGKEYKCKVSNKALPAPIEKTISKAKGQPREPQVYTLPPSREEMTKNQVSLTCDVSGFYPSDIAVEWESDGQPENNYKTTPPVLDSDGSFFLYSKLTVDKSRWEQGDVFSCSVLHEALHSHYTQKSLSLSPGK heavy 2: QVQLVQSGAEVKKPGASVKVSCKASGYIFTNNYMHWVRQAPGQGLEWMGIISPSVGRTAYAQKFQGRVTMTRDTSTSTVYMELSSLRSEDTAVYYCARGGGSSPRLDYWGQGTLVTVSSASTKGPSVFPLAPSSKSTSGGTAALGCLVKDYFPEPVTVSWNSGALTSGVHTFPAVLQSSGLYSLSSVVTVPSSSLGTQTYICNVNHKPSNTKVDKKVEPKSCGKPGSGKPGSQVQLVQSGAEVKKPGASVKVSCKASGYIFTNNYMHWVRQAPGQGLEWMGIISPSVGRTAYAQKFQGRVTMTRDTSTSTVYMELSSLRSEDTAVYYCARGGGSSPRLDYWGQGTLVTVSSASTKGPSVFPLAPSSKSTSGGTAALGCLVKDYFPEPVTVSWNSGALTSGVHTFPAVLQSSGLYSLSSVVTVPSSSLGTQTYICNVNHKPSNTKVDKKVEPKSCDKTHTCPPCPAPPVAGPSVFLFPPKPKDTLMISRTPEVTCVVVDVKHEDPEVKFNWYVDGVEVHNAKTKPREEQYNSTYRVVSVLTVLHQDWLNGKEYKCKVSNKALPAPIEKTISKAKGQPREPQVYTLPPSREQMTKNQVKLTCLVKGFYPSDIAVEWESNGQPENNYKTTPPVLDSDGSFFLYSKLTVDKSRWQQGNVFSCSVLHEALHSHYTQKSLSLSPGK light: not shown | Kd [4]: 7.6 nM; Kd [5]: 230 nM
 |  |  | 200 | XENP37810 (bispecific antibody) heavy 1: EVQLLESGGGLVQPGGSLRLSCAASGFTFSSYYMSWVRQAPGKGLEWVSTISESGDSTYYADSVKGRFTISRDNSKNTLYLQMNSLRAEDTAVYYCAKSGPGLRQVGFDYWGQGTLVTVSSASTKGPSVFPLAPSSKSTSGGTAALGCLVKDYFPEPVTVSWNSGALTSGVHTFPAVLQSSGLYSLSSVVTVPSSSLGTQTYICNVNHKPSDTKVDKKVEPKSCDKTHTCPPCPAPPVAGPSVFLFPPKPKDTLMISRTPEVTCVVVDVKHEDPEVKFNWYVDGVEVHNAKTKPREEEYNSTYRVVSVLTVLHQDWLNGKEYKCKVSNKALPAPIEKTISKAKGQPREPQVYTLPPSREEMTKNQVSLTCDVSGFYPSDIAVEWESDGQPENNYKTTPPVLDSDGSFFLYSKLTVDKSRWEQGDVFSCSVLHEALHSHYTQKSLSLSPGK heavy 2: QVQLVQSGAEVKKPGASVKVSCKASGYIFTNHYMHWVRQAPGQGLEWMGIISPSAGSTDYAQKFQGRVTMTRDTSTSTVYMELSSLRSEDTAVYYCARGGGSSPRLDYWGQGTLVTVSSASTKGPSVFPLAPSSKSTSGGTAALGCLVKDYFPEPVTVSWNSGALTSGVHTFPAVLQSSGLYSLSSVVTVPSSSLGTQTYICNVNHKPSNTKVDKKVEPKSCGKPGSGKPGSQVQLVQSGAEVKKPGASVKVSCKASGYIFTNHYMHWVRQAPGQGLEWMGIISPSAGSTDYAQKFQGRVTMTRDTSTSTVYMELSSLRSEDTAVYYCARGGGSSPRLDYWGQGTLVTVSSASTKGPSVFPLAPSSKSTSGGTAALGCLVKDYFPEPVTVSWNSGALTSGVHTFPAVLQSSGLYSLSSVVTVPSSSLGTQTYICNVNHKPSNTKVDKKVEPKSCDKTHTCPPCPAPPVAGPSVFLFPPKPKDTLMISRTPEVTCVVVDVKHEDPEVKFNWYVDGVEVHNAKTKPREEQYNSTYRVVSVLTVLHQDWLNGKEYKCKVSNKALPAPIEKTISKAKGQPREPQVYTLPPSREQMTKNQVKLTCLVKGFYPSDIAVEWESNGQPENNYKTTPPVLDSDGSFFLYSKLTVDKSRWQQGNVFSCSVLHEALHSHYTQKSLSLSPGK light: not shown | 

More lines, now with the values behind:

Binder | Kd [1] [nM] | Kd (CD28-Fc-His protein [2]) [nM] | Kd (CD28-Fc-His protein [3]) [nM] | Kd [6] [nM] | further results
H1_L1.71 (antibody, V domains shown) VH: EVQLLESGGGLVQPGGSLRLSCAASGFTFSSYAMSWVRQAPGKGLEWVSTISGSGDSTYYADSVKGRFTISRDNSKNTLYLQMNSLRAEDTAVYYCAKSGPGLRQVGFDYWGQGTLVTVSS VL: not shown | 180 |  |  |  | 
H1.1_L1.71 (antibody, V domains shown) VH: EVQLLESGGGLVQPGGSLRLSCAASGFTFSSYYMSWVRQAPGKGLEWVSTISGSGDSTYYADSVKGRFTISRDNSKNTLYLQMNSLRAEDTAVYYCAKSGPGLRQVGFDYWGQGTLVTVSS VL: not shown | 91.6 |  |  |  | 
XENP34389 (bispecific antibody) heavy 1: EVQLLESGGGLVQPGGSLRLSCAASGFTFSNYYMAWVRQAPGKGLEWVSSISTGGGSTYYRDSVKGRFTISRDNSKSTLYLQMNSLRAEDTAVYYCTTDLSAIAATPFAYWGQGTLVTVSSASTKGPSVFPLAPSSKSTSGGTAALGCLVKDYFPEPVTVSWNSGALTSGVHTFPAVLQSSGLYSLSSVVTVPSSSLGTQTYICNVNHKPSDTKVDKKVEPKSCDKTHTCPPCPAPPVAGPSVFLFPPKPKDTLMISRTPEVTCVVVDVKHEDPEVKFNWYVDGVEVHNAKTKPREEEYNSTYRVVSVLTVLHQDWLNGKEYKCKVSNKALPAPIEKTISKAKGQPREPQVYTLPPSREEMTKNQVSLTCDVSGFYPSDIAVEWESDGQPENNYKTTPPVLDSDGSFFLYSKLTVDKSRWEQGDVFSCSVMHEALHNHYTQKSLSLSPGK heavy 2: not shown light: DIQMTQSPSSLSASVGDRVTITCRASQNIYTSLAWYQQKPGKAPKLLIYNAHSLQTGIPSRFSGSGSGADFTLTISSLQPEDFATYFCQQYYSGLTFGSGTKLEIKRTVAAPSVFIFPPSDEQLKSGTASVVCLLNNFYPREAKVQWKVDNALQSGNSQESVTEQDSKDSTYSLSSTLTLSKADYEKHKVYACEVTHQGLSSPVTKSFNRGEC |  | 560 | 790 |  | 
XENP34339 (bispecific antibody) heavy 1: EVQLLESGGGLVQPGGSLRLSCAASGFTFSSYYMSWVRQAPGKGLEWVSTISESGDSTYYADSVKGRFTISRDNSKNTLYLQMNSLRAEDTAVYYCAKSGPGLRQVGFDYWGQGTLVTVSSASTKGPSVFPLAPSSKSTSGGTAALGCLVKDYFPEPVTVSWNSGALTSGVHTFPAVLQSSGLYSLSSVVTVPSSSLGTQTYICNVNHKPSDTKVDKKVEPKSCDKTHTCPPCPAPPVAGPSVFLFPPKPKDTLMISRTPEVTCVVVDVKHEDPEVKFNWYVDGVEVHNAKTKPREEEYNSTYRVVSVLTVLHQDWLNGKEYKCKVSNKALPAPIEKTISKAKGQPREPQVYTLPPSREEMTKNQVSLTCDVSGFYPSDIAVEWESDGQPENNYKTTPPVLDSDGSFFLYSKLTVDKSRWEQGDVFSCSVMHEALHNHYTQKSLSLSPGK heavy 2: QVQLVQSGAEVKKPGASVKVSCKASGYIFTNNYMHWVRQAPGQGLEWMGIISPSVGRTAYAQKFQGRVTMTRDTSTSTVYMELSSLRSEDTAVYYCARGGGSSPRLDYWGQGTLVTVSSASTKGPSVFPLAPSSKSTSGGTAALGCLVKDYFPEPVTVSWNSGALTSGVHTFPAVLQSSGLYSLSSVVTVPSSSLGTQTYICNVNHKPSNTKVDKKVEPKSCGKPGSGKPGSQVQLVQSGAEVKKPGASVKVSCKASGYIFTNNYMHWVRQAPGQGLEWMGIISPSVGRTAYAQKFQGRVTMTRDTSTSTVYMELSSLRSEDTAVYYCARGGGSSPRLDYWGQGTLVTVSSASTKGPSVFPLAPSSKSTSGGTAALGCLVKDYFPEPVTVSWNSGALTSGVHTFPAVLQSSGLYSLSSVVTVPSSSLGTQTYICNVNHKPSNTKVDKKVEPKSCDKTHTCPPCPAPPVAGPSVFLFPPKPKDTLMISRTPEVTCVVVDVKHEDPEVKFNWYVDGVEVHNAKTKPREEQYNSTYRVVSVLTVLHQDWLNGKEYKCKVSNKALPAPIEKTISKAKGQPREPQVYTLPPSREQMTKNQVKLTCLVKGFYPSDIAVEWESNGQPENNYKTTPPVLDSDGSFFLYSKLTVDKSRWQQGNVFSCSVMHEALHNHYTQKSLSLSPGK light: not shown |  | 150 | 96 |  | 
